Test results: article PMC5548887

Biological target: HHARI full-length (residues 1-557) (UniProt Q9Y4X5)
Test: ITC; nanoITC, 25 °C, 50 mM NaCl, 10 mM Na2HPO4, 2 mM KH2PO4 pH 7.0; 200 μM UbcH7 proteins injected into 20 μM HHARI full length; 500 μM UbcH5b proteins into 50 μM HHARI full length

Sequence of HHARI full-length (residues 1-557) (Q9Y4X5 whole entry, the tested form may be a part): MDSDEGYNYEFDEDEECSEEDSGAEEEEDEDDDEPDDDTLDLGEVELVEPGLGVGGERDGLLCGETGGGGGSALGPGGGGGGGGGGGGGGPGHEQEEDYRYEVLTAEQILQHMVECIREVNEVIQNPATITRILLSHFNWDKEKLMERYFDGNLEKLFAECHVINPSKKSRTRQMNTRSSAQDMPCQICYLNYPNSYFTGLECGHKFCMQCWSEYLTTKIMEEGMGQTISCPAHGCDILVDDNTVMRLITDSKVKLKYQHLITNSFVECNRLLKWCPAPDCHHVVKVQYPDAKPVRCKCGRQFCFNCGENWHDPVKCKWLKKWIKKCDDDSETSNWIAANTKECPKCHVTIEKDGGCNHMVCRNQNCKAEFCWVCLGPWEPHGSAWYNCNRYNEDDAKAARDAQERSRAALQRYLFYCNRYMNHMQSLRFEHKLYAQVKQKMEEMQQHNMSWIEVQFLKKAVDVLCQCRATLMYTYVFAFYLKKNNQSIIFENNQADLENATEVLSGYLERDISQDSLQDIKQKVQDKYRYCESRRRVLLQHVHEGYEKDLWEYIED
Sequence of UbcH5b wild type (P62837 whole entry): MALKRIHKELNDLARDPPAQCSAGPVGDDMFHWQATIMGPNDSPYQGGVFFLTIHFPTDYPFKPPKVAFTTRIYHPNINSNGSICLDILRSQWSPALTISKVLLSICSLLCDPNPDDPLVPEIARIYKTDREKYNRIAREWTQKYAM

“UbcH5b wild type (from UniProt P62837 1-147) (enzyme; other documents disagree on this pair)” showed a Kd of 19.5 µM.
